In patent US20200392227A1 (LYVGEN BIOPHARMA, published 2020):
Changes are numbered by the printed parent chain. Like-named read-outs stand apart in the source and are kept apart here.

Columns and labels:
[1] = target: T1, human FcRI protein (MednaBio, E1031) (human, UniProt P12314 16-288, limits assumed); assay: BLI
T1 construct: Bought; loaded on anti-penta-HIS biosensors; also called FcγRI
In short: (§1)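 Binding was measured by biolayer interferometry on an Octet Red96 System. Commercial human Fc receptor proteins were loaded at 20 μg/mL onto anti-penta-HIS biosensors, which were then dipped into an 8-point 1:3 dilution series of test IgG starting at 300 nM in PBS with 0.1% BSA and 0.02% Tween-20, at pH 7.2 for Fcγ receptors and pH 6 for FcRn. Kd, kon and koff were obtained by global fitting, with data fitted to a 1:1 binding model.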

[2] = target: T2, human FcRIIA protein (MednaBio, E1033) (human, UniProt P12318 34-218, limits assumed); assay: BLI
T2 construct: Bought; also called FcγRIIA
T2 sequence (looked up): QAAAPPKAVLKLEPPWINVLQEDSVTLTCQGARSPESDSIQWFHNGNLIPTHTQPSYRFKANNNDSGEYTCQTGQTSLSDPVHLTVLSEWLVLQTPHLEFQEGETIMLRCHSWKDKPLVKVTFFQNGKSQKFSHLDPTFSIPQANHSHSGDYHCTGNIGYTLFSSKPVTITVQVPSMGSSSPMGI
In short: as §1

[3] = target: T3, human FcRIIB/C protein (MednaBio, E1034) (human, UniProt P31994 43-217, limits assumed); assay: BLI
T3 construct: Bought as FcRIIB/C; also called FcγRIIB; CD32B
T3 sequence (looked up): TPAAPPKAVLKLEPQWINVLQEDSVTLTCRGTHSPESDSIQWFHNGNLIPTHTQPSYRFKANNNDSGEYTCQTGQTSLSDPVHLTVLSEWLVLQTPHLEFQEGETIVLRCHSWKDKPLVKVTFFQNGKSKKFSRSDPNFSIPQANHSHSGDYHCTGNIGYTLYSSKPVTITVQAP
In short: as §1

[4] = target: T4, human FcRIIIA-F158 protein (MednaBio, E1036) (human, UniProt P08637 17-208); assay: BLI
T4 construct: Bought; also called FcγRIIIA(F)
In short: as §1

[5] = target: T5, human FcRIIIA-V158 protein (MednaBio, E1035) (human, UniProt P08637 17-208); assay: BLI
T5 construct: Bought; also called FcγRIIIA(V); FcgRIIIA(V)
In short: as §1

[6] = target: T6, human FcRIIIB protein (MednaBio, E1037) (human, UniProt O75015 17-200); assay: BLI
T6 construct: Bought; also called FcγRIIIB; FcgRIIIB
In short: as §1

[7] = target: T7, human FcRn protein (MednaBio, E1032) (human, UniProt P55899 24-297; P61769 21-119); assay: BLI
T7 construct: Bought; assays at pH 6
In short: as §1

[8] = target: T8, human FcγRIIC expressed on CHO cells (human, UniProt P31995 43-323); assay: FACS, CHO cells expressing FcγRIIC
T8 construct: whole, on cells
T8 sequence (looked up): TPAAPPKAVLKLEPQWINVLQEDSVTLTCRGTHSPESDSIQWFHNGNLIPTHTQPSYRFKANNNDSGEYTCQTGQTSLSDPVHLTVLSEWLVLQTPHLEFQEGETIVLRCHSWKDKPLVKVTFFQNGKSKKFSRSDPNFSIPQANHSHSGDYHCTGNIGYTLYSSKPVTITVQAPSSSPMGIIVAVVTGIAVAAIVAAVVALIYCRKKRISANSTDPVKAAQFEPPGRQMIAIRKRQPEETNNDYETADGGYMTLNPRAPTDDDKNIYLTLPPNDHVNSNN

[9] = target: T9, human FcγRIIA(H131) expressed on CHO cells (human, UniProt P12318 34-317); assay: FACS, CHO cells expressing FcγRIIA(H131)
T9 construct: whole, on cells
T9 sequence (looked up): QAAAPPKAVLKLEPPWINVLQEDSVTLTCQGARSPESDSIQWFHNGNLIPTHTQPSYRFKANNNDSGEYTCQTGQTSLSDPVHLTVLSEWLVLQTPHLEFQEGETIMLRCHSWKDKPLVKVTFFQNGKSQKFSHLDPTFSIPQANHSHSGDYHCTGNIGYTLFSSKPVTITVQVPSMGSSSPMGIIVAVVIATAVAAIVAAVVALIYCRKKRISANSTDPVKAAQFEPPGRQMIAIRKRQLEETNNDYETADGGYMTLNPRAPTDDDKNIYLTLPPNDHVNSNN
Protocol: (§2) For FACS analysis of the IgG mutants' binding to different FcγRs, FcγR overexpressing CHO cells were harvested using trypsin-EDTA and were suspended in cold staining buffer (3% BSA in PBS). Test IgG mutants, which were diluted in staining buffer, were added into the cells. The mixture was incubated 4° C. for 2 hours, and then washed twice with cold staining buffer and re-suspended in PE-labeled anti-human IgG followed by incubation at 4° C. for 2 hours. The mixture was washed twice with staining buffer and re-suspended in 2% PFA in PBS for FACS.

[10] = target: T10, human FcγRIIA(R131) expressed on CHO cells (human, UniProt P12318 34-317); assay: FACS, CHO cells expressing FcγRIIA(R131)
T10 construct: whole, on cells
T10 sequence (looked up): T9 sequence (looked up) with H134R
Protocol: as §2

[11] = target: T1, human FcRI protein (MednaBio, E1031); assay: BLI; remark: listed apart in the source
Protocol: (§3) These IgG mutants were tested for binding to a panel of human Fc receptors (FcRs), including FcRn, using the Octet Red96 System (ForteBio, Model #Red96). Human FcR proteins were purchased commercially (FcRn, MednaBio, E1032; FcRI, MednaBio, E1031; FcRIIA, MednaBio, E1033; FcRIIB/C, MednaBio, E1034; FcRIIIA-F158, MednaBio, E1036; FcRIIIA-V158, MednaBio, E1035; FcRIIIB, MednaBio, E1037). All Fey receptor assays were performed at pH 7.2; all FcRn assays were performed at pH 6. The Fey receptors were loaded onto anti-penta-HIS1K (ForteBio, Cat #18-5122) biosensors at a concentration of 20 μg/mL. The loaded biosensors was then be dipped into an 8-point 1:3 dilution series of the test IgG molecules (including controls and the mutants described herein) in PBS with 0.1% BSA, 0.02% Tween-20 (pH 7.2) at a starting concentration of 300 nM. Kinetic analysis was performed using a 1:1 binding model and global fitting.

[12] = target: T2, human FcRIIA protein (MednaBio, E1033); assay: BLI; remark: listed apart in the source
Protocol: as §3

[13] = target: T3, human FcRIIB/C protein (MednaBio, E1034); assay: BLI; remark: listed apart in the source
Protocol: as §3

[14] = target: T4, human FcRIIIA-F158 protein (MednaBio, …); assay: BLI; remark: listed apart in the source
Protocol: as §3

[15] = target: T5, human FcRIIIA-V158 protein (MednaBio, …); assay: BLI; remark: listed apart in the source
Protocol: as §3

[16] = target: T6, human FcRIIIB protein (MednaBio, E1037); assay: BLI; remark: listed apart in the source
Protocol: as §3

[17] = target: T7, human FcRn protein (MednaBio, E1032); assay: BLI; remark: listed apart in the source
Protocol: as §3

[18] = target: T11, human FcγRI expressed on CHO cells (human, UniProt P12314 16-374); assay: FACS, CHO cells expressing FcγRI
T11 construct: whole, on cells
In short: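 Trypsin-harvested CHO cells overexpressing each FcγR were incubated 2 h at 4 °C with IgG mutants in 3% BSA/PBS. Bound IgG was detected with PE-labeled anti-human IgG (2 h, 4 °C), then cells were fixed in 2% PFA and analysed by flow cytometry.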

T4 sequence (P08637 17-208 limits assumed): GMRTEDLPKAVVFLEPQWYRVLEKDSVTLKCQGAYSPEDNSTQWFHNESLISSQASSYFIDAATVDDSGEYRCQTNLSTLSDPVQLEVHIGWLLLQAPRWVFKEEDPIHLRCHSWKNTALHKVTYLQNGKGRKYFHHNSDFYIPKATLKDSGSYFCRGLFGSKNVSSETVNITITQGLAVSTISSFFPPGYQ
T1 sequence (P12314 16-288 limits assumed): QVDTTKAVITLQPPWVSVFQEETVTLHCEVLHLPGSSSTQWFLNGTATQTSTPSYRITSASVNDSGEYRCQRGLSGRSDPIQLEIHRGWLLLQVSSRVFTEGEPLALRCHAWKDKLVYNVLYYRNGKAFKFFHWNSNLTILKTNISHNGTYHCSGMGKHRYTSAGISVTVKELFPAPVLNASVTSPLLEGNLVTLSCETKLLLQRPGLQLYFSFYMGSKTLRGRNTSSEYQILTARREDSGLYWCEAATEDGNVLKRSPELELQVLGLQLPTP
T6 sequence (O75015 17-200 limits assumed): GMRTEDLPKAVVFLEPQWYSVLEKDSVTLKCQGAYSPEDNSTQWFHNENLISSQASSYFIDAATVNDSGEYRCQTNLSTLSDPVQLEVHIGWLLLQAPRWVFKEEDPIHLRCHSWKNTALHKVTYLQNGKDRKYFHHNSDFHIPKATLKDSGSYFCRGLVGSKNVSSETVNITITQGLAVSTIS
T5 sequence (P08637 17-208 F176V): as the sequence (P08637 17-208 limits assumed) above, with F160V counted along it
T7 sequence (P55899 24-297 limits assumed, form in doubt, chain 1 of 2): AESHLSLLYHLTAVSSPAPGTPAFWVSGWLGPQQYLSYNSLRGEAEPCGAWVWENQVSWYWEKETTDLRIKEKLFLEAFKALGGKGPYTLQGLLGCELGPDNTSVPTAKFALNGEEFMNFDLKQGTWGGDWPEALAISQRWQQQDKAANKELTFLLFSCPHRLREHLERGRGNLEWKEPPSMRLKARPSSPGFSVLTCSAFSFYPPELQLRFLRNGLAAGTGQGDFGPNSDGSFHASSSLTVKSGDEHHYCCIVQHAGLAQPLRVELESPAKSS
T7 sequence (P61769 21-119 limits assumed, form in doubt, chain 2 of 2): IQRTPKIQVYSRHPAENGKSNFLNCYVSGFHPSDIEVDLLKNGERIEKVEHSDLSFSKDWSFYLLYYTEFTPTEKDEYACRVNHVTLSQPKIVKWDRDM
T11 sequence (P12314 16-374): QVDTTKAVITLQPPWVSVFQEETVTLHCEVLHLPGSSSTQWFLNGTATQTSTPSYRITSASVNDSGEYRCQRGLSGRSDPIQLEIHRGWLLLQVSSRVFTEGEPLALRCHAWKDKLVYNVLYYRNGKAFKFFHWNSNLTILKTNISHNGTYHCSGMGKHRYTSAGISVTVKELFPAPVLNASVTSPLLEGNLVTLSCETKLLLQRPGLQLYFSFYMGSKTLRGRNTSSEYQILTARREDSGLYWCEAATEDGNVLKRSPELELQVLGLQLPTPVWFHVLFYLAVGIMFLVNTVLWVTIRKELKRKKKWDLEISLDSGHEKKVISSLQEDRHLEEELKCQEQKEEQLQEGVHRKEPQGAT

B1: anti-CD137 IgG4 with Fc variant G4m9 (antibody)
heavy: EVQLVQSGAEVKKPGESLRISCKGSGYSFSTYWISWVRQMPGKGLEWMGKIYPGDSYTNYSPSFQGQVTISADKSISTAYLQWSSLKASDTAMYYCARGYGIFDYWGQGTLVTVSSASTKGPSVFPLAPCSRSTSESTAALGCLVKDYFPEPVTVSWNSGALTSGVHTFPAVLQSSGLYSLSSVVTVPSSSLGTKTYTCNVDHKPSNTKVDKRVESKYGPPCPPCPAPEFLGGPSVFLFPPKPKDTLMISRTPEVTCVVVDVEQEDPEVQFNWYVDGVEVHNAKTKPREEQFNSTYRVVSVLTVLHQDWLNGKEYKCKVSNKGFPSSIEKTISKAKGQPREPQVYTLPPSQEEMTKNQVSLTCLVKGFYPSDIAVEWESNGQPENNYKTTPPVLDSDGSFFLYSRLTVDKSRWQEGNVFSCSVMHEALHNHYTQKSLSLSLGK
light: SYELTQPPSVSVSPGQTASITCSGDNIGDQYAHWYQQKPGQSPVLVIYQDKNRPSGIPERFSGSNSGNTATLTISGTQAMDEADYYCATYTGFGSLAVFGGGTKLTVLGQPKAAPSVTLFPPSSEELQANKATLVCLISDFYPGAVTVAWKADSSPVKAGVETTTPSKQSNNKYAASSYLSLTPEQWKSHRSYSCQVTHEGSTVEKTVAPTECS
notes: copies: 2 + 2
Kd [1]: 17 nM | koff [1]: 0.0074 s⁻¹ | kon [1]: 440000 M⁻¹ s⁻¹ | binding result [2]: no binding (tested: 300 nM) | Kd [3]: 140 nM | koff [3]: 0.013 s⁻¹ | kon [3]: 94000 M⁻¹ s⁻¹ | binding result [4]: no binding (tested: 300 nM) | binding result [5]: no binding (tested: 300 nM) | binding result [6]: no binding (tested: 300 nM) | Kd [7]: 75 nM | koff [7]: 0.017 s⁻¹ | kon [7]: 230000 M⁻¹ s⁻¹ | binding result [8]: binds | binding result [9]: no binding (tested: 10 ug/ml) | binding result [10]: binds

B2: anti-CD137 IgG4 with Fc variant G4m2 (antibody)
heavy: EVQLVQSGAEVKKPGESLRISCKGSGYSFSTYWISWVRQMPGKGLEWMGKIYPGDSYTNYSPSFQGQVTISADKSISTAYLQWSSLKASDTAMYYCARGYGIFDYWGQGTLVTVSSASTKGPSVFPLAPCSRSTSESTAALGCLVKDYFPEPVTVSWNSGALTSGVHTFPAVLQSSGLYSLSSVVTVPSSSLGTKTYTCNVDHKPSNTKVDKRVESKYGPPCPPCPAPEFLGPSVFLFPPKPKDTLMISRTPEVTCVVVDVSQEDPEVQFNWYVDGVEVHNAKTKPREEQFNSTYRVVSVLTVLHQDWLNGKEYKCKVSNKGLPSSIEKTISKAKGQPREPQVYTLPPSQEEMTKNQVSLTCLVKGFYPSDIAVEWESNGQPENNYKTTPPVLDSDGSFFLYSRLTVDKSRWQEGNVFSCSVMHEALHNHYTQKSLSLSLGK
light: B1 light
notes: copies: 2 + 2
binding result [11]: no binding (tested: 300 nM) | binding result [12]: no binding (tested: 300 nM) | Kd [13]: 150 nM | koff [13]: 0.046 s⁻¹ | kon [13]: 310000 M⁻¹ s⁻¹ | binding result [14]: no binding (tested: 300 nM) | binding result [15]: no binding (tested: 300 nM) | binding result [16]: no binding (tested: 300 nM) | Kd [17]: 9.8 nM | koff [17]: 0.013 s⁻¹ | kon [17]: 1.4e+06 M⁻¹ s⁻¹ | binding result [18]: no binding (tested: 10 ug/ml) | binding result [9]: no binding (tested: 10 ug/ml) | binding result [10]: no binding (tested: 10 ug/ml)

B3: anti-CD137 IgG4 with Fc variant G4m20 (antibody)
heavy: EVQLVQSGAEVKKPGESLRISCKGSGYSFSTYWISWVRQMPGKGLEWMGKIYPGDSYTNYSPSFQGQVTISADKSISTAYLQWSSLKASDTAMYYCARGYGIFDYWGQGTLVTVSSASTKGPSVFPLAPCSRSTSESTAALGCLVKDYFPEPVTVSWNSGALTSGVHTFPAVLQSSGLYSLSSVVTVPSSSLGTKTYTCNVDHKPSNTKVDKRVESKYGPPCPPCPAPEFLGSVFLFPPKPKDTLMISRTPEVTCVVVDVSQEDPEVQFNWYVDGVEVHNAKTKPREEQFNSTYRVVSVLTVLHQDWLNGKEYKCKVSNKGLPSSIEKTISKAKGQPREPQVYTLPPSQEEMTKNQVSLTCLVKGFYPSDIAVEWESNGQPENNYKTTPPVLDSDGSFFLYSRLTVDKSRWQEGNVFSCSVMHEALHNHYTQKSLSLSLGK
light: B1 light
notes: copies: 2 + 2
binding result [11]: no binding (tested: 300 nM) | binding result [12]: no binding (tested: 300 nM) | binding result [13]: no binding (tested: 300 nM) | binding result [14]: no binding (tested: 300 nM) | binding result [15]: no binding (tested: 300 nM) | binding result [16]: no binding (tested: 300 nM) | Kd [17]: 19 nM | koff [17]: 0.0098 s⁻¹ | kon [17]: 510000 M⁻¹ s⁻¹ | binding result [8]: no binding (tested: 10 ug/ml) | binding result [9]: no binding (tested: 10 ug/ml)
